# Literature values in patent publication US20200069786A1, “COMPOSITION AND PROCESS FOR PREPARING VACCINE” (TREOS BIO ZRT., priority 2018, published 2020).
# B1: HOM-TES-85 (protein, UniProt Q9P127 1-313, looked up)
# Leucine zipper protein 4: MASFRKLTLSEKVPPNHPSRKKVNFLDMSLDDIIIYKELEGTNAEEEKNKRQNHSKKESPSRQQSKAHRHRHRRGYSRCRSNSEEGNHDKKPSQKPSGFKSGQHPLNGQPLIEQEKCSDNYEAQAEKNQGQSEGNQHQSEGNPDKSEESQGQPEENHHSERSRNHLERSLSQSDRSQGQLKRHHPQYERSHGQYKRSHGQSERSHGHSERSHGHSERSHGHSERSHGHSKRSRSQGDLVDTQSDLIATQRDLIATQKDLIATQRDLIATQRDLIVTQRDLVATERDLINQSGRSHGQSERHQRYSTGKNTITT
# B2: FTHL17 (protein, UniProt Q9BXU8 1-183, looked up)
# Ferritin heavy …: MATAQPSQVRQKYDTNCDAAINSHITLELYTSYLYLSMAFYFNRDDVALENFFRYFLRLSDDKMEHAQKLMRLQNLRGGHICLHDIRKPECQGWESGLVAMESAFHLEKNVNQSLLDLYQLAVEKGDPQLCHFLESHYLHEQVKTIKELGGYVSNLRKICSPEAGLAEYLFDKLTLGGRVKET
# B3: MAGE-A4 (protein, UniProt P43358 1-317, looked up)
# Melanoma-associated antigen 4: MSSEQKSQHCKPEEGVEAQEEALGLVGAQAPTTEEQEAAVSSSSPLVPGTLEEVPAAESAGPPQSPQGASALPTTISFTCWRQPNEGSSSQEEEGPSTSPDAESLFREALSNKVDELAHFLLRKYRAKELVTKAEMLERVIKNYKRCFPVIFGKASESLKMIFGIDVKEVDPASNTYTLVTCLGLSYDGLLGNNQIFPKTGLLIIVLGTIAMEGDSASEEEIWEELGVMGVYDGREHTVYGEPRKLLTQDWVQENYLEYRQVPGSNPARYEFLWGPRALAETSYVKVLEHVVRVNARVRIAYPSLREAALLEEEEGV
# B4: SPAN-Xc (protein, UniProt Q9NY87 1-97, looked up)
# Sperm protein associated with …: MDKQSSAGGVKRSVPCDSNEANEMMPETSSGYSDPQPAPKKLKTSESSTILVVRYRRNVKRTSPEELVNDHARENRINPLQMEEEEFMEIMVEIPAK
# B5: AKAP-4 (protein, UniProt Q5JQC9 189-854, looked up)
# A-kinase anchor protein 4: QSPSAPPAKPPSTQRAVISPDGECSIDDLSFYVNRLSSLVIQMAHKEIKEKLEGKSKCLHHSICPSPGNKERISPRTPASKIASEMAYEAVELTAAEMRGTGEESREGGQKSFLYSELSNKSKSGDKQMSQRESKEFADSISKGLMVYANQVASDMMVSLMKTLKVHSSGKPIPASVVLKRVLLRHTKEIVSDLIDSCMKNLHNITGVLMTDSDFVSAVKRNLFNQWKQNATDIMEAMLKRLVSALIGEEKETKSQSLSYASLKAGSHDPKCRNQSLEFSTMKAEMKERDKGKMKSDPCKSLTSAEKVGEHILKEGLTIWNQKQGNSCKVATKACSNKDEKGEKINASTDSLAKDLIVSALKLIQYHLTQQTKGKDTCEEDCPGSTMGYMAQSTQYEKCGGGQSAKALSVKQLESHRAPGPSTCQKENQHLDSQKMDMSNIVLMLIQKLLNENPFKCEDPCEGENKCSEPRASKAASMSNRSDKAEEQCQEHQELDCTSGMKQANGQFIDKLVESVMKLCLIMAKYSNDGAALAELEEQAASANKPNFRGTRCIHSGAMPQNYQDSLGHEVIVNNQCSTNSLQKQLQAVLQWIAASQFNVPMLYFMGDKDGQLEKLPQVSAKAAEKGYSVGGLLQEVMKFAKERQPDEAVGKVARKQLLDWLLANL
# B6: SPAG1 (protein, UniProt Q07617 1-926, looked up)
# Sperm-associated antigen 1: MTTKDYPSLWGFGTTKTFKIPIEHLDFKYIEKCSDVKHLEKILCVLRSGEEGYYPELTEFCEKHLQALAPESRALRKDKPAATAASFTAEEWEKIDGDIKSWVSEIKKEEDKMHFHETETFPAMKDNLPPVRGSNSCLHVGKEKYSKRPTKKKTPRDYAEWDKFDVEKECLKIDEDYKEKTVIDKSHLSKIETRIDTAGLTEKEKDFLATREKEKGNEAFNSGDYEEAVMYYTRSISALPTVVAYNNRAQAEIKLQNWNSAFQDCEKVLELEPGNVKALLRRATTYKHQNKLREATEDLSKVLDVEPDNDLAKKTLSEVERDLKNSEAASETQTKGKRMVIQEIENSEDEEGKSGRKHEDGGGDKKPAEPAGAARAAQPCVMGNIQKKLTGKAEGGKRPARGAPQRGQTPEAGADKRSPRRASAAAAAGGGATGHPGGGQGAENPAGLKSQGNELFRSGQFAEAAGKYSAAIALLEPAGSEIADDLSILYSNRAACYLKEGNCSGCIQDCNRALELHPFSMKPLLRRAMAYETLEQYGKAYVDYKTVLQIDCGLQLANDSVNRLSRILMELDGPNWREKLSPIPAVPASVPLQAWHPAKEMISKQAGDSSSHRQQGITDEKTFKALKEEGNQCVNDKNYKDALSKYSECLKINNKECAIYTNRALCYLKLCQFEEAKQDCDQALQLADGNVKAFYRRALAHKGLKNYQKSLIDLNKVILLDPSIIEAKMELEEVTRLLNLKDKTAPFNKEKERRKIEIQEVNEGKEEPGRPAGEVSMGCLASEKGGKSSRSPEDPEKLPIAKPNNAYEFGQIINALSTRKDKEACAHLLAITAPKDLPMFLSNKLEGDTFLLLIQSLKNNLIEKDPSLVYQHLLYLSKAERFKMMLTLISKGQKELIEQLFEDLSDTPNNHFTLEDIQALKRQYEL
# B7: MAGE-A9 (protein, UniProt P43362 1-315, looked up)
# Melanoma-associated antigen 9: MSLEQRSPHCKPDEDLEAQGEDLGLMGAQEPTGEEEETTSSSDSKEEEVSAAGSSSPPQSPQGGASSSISVYYTLWSQFDEGSSSQEEEEPSSSVDPAQLEFMFQEALKLKVAELVHFLLHKYRVKEPVTKAEMLESVIKNYKRYFPVIFGKASEFMQVIFGTDVKEVDPAGHSYILVTALGLSCDSMLGDGHSMPKAALLIIVLGVILTKDNCAPEEVIWEALSVMGVYVGKEHMFYGEPRKLLTQDWVQENYLEYRQVPGSDPAHYEFLWGSKAHAETSYEKVINYLVMLNAREPICYPSLYEEVLGEEQEGV
# B8: AKAP-3 (protein, UniProt O75969 1-853, looked up)
# A-kinase anchor protein 3: MSEKVDWLQSQNGVCKVDVYSPGDNQAQDWKMDTSTDPVRVLSWLRRDLEKSTAEFQDVRFKPGESFGGETSNSGDPHKGFSVDYYNTTTKGTPERLHFEMTHKEIPCQGPRAQLGNGSSVDEVSFYANRLTNLVIAMARKEINEKIDGSENKCVYQSLYMGNEPTPTKSLSKIASELVNETVSACSRNAAPDKAPGSGDRVSGSSQSPPNLKYKSTLKIKESTKERQGPDDKPPSKKSFFYKEVFESRNGDYAREGGRFFPRERKRFRGQERPDDFTASVSEGIMTYANSVVSDMMVSIMKTLKIQVKDTTIATILLKKVLLKHAKEVVSDLIDSFLRNLHSVTGTLMTDTQFVSAVKRTVFSHGSQKATDIMDAMLRKLYNVMFAKKVPEHVRKAQDKAESYSLISMKGMGDPKNRNVNFAMKSETKLREKMYSEPKSEEETCAKTLGEHIIKEGLTLWHKTQQKECKSLGFQHAAFEAPNTQRKPASDISFEYPEDIGNLSLPPYPPEKPENFMYDSDSWAEDLIVSALLLIQYHLAQGGRRDARSFVEAAGTTNFPANEPPVAPDESCLKSAPIVGDQEQAEKKDLRSVFFNFIRNLLSETIFKRDQSPEPKVPEQPVKEDRKLCERPLASSPPRLYEDDETPGALSGLTKMAVSQIDGHMSGQMVEHLMNSVMKLCVIIAKSCDASLAELGDDKSGDASRLTSAFPDSLYECLPAKGTGSAEAVLQNAYQAIHNEMRGTSGQPPEGCAAPTVIVSNHNLTDTVQNKQLQAVLQWVAASELNVPILYFAGDDEGIQEKLLQLSAAAVDKGCSVGEVLQSVLRYEKERQLNEAVGNVTPLQLLDWLMVNL
# B9: DPPA2 (protein, UniProt Q7Z7J5 1-298, looked up)
# Developmental …: MSDANLDSSKKNFLEGEVDDEESVILTLVPVKDDANMEQMEPSVSSTSDVKLEKPKKYNPGHLLQTNEQFTAPQKARCKIPALPLPTILPPINKVCRDTLRDWCQQLGLSTNGKKIEVYLRLHRHAYPEQRQDMPEMSQETRLQRCSRKRKAVTKRARLQRSYEMNERAEETNTVEVITSAPGAMLASWARIAARAVQPKALNSCSIPVSVEAFLMQASGVRWCVVHGRLLSADTKGWVRLQFHAGQAWVPTTHRRMISLFLLPACIFPSPGIEDNMLCPDCAKRNKKMMKRLMTVEK
# Tested on: TSA
# Conditions: BRAIN
row,Molecule,TSA Expression Rate (ER) [%]
1,B1,10
2,B2,82
3,B3,11

# Same assay, conditions: BREAST
row,Molecule,TSA Expression Rate (ER) [%]
1,B4,26
2,B5,85
3,B6,31
4,B1,47
5,B7,44
6,B8,40
7,B2,14
8,B3,9

# Same assay, conditions: HCC
row,Molecule,TSA Expression Rate (ER) [%]
1,B4,60
2,B6,11
3,B1,19
4,B7,5
5,B8,50
6,B3,7

# Same assay, conditions: LUNG
row,Molecule,TSA Expression Rate (ER) [%]
1,B5,25
2,B6,71
3,B9,30
4,B8,46
5,B2,25
6,B3,27

# Same assay, conditions: OVARIAN
row,Molecule,TSA Expression Rate (ER) [%]
1,B4,0
2,B5,89
3,B6,31
4,B9,31
5,B1,32
6,B7,37
7,B8,48
8,B3,37

# Same assay, conditions: PANCREATIC
row,Molecule,TSA Expression Rate (ER) [%]
1,B4,0
2,B6,93
3,B3,2

# Same assay, conditions: THYROID
row,Molecule,TSA Expression Rate (ER) [%]
1,B2,0
2,B3,0

# Same assay, conditions: TSA expression rate in BLADDER cancer
row,Molecule,Expression Rate (ER) % [%]
1,B4,9
2,B1,0
3,B7,61
4,B2,22
5,B3,27

# Same assay, conditions: TSA expression rate in CRC
row,Molecule,Expression Rate (ER) % [%]
1,B4,24
2,B5,74
3,B6,55
4,B9,44
5,B8,83
6,B2,0
7,B3,18

# Same assay, conditions: TSA expression rate in Cervical cancer
row,Molecule,Expression Rate (ER) % [%]
1,B5,86
2,B3,23

# Same assay, conditions: TSA expression rate in Esophageal
row,Molecule,Expression Rate (ER) % [%]
1,B4,0
2,B7,55
3,B2,0
4,B3,76

# Same assay, conditions: TSA expression rate in GASTRIC cancer
row,Molecule,Expression Rate (ER) % [%]
1,B4,0
2,B9,100
3,B8,89
4,B3,24

# Same assay, conditions: TSA expression rate in HEAD and NECK
row,Molecule,Expression Rate (ER) % [%]
1,B6,7
2,B1,4
3,B7,44
4,B2,10
5,B3,42

# Same assay, conditions: TSA expression rate in Kidney
row,Molecule,Expression Rate (ER) % [%]
1,B6,11
2,B7,55
3,B2,0
4,B3,17

# Same assay, conditions: TSA expression rate in LEUKEMIAS
row,Molecule,Expression Rate (ER) % [%]
1,B4,4
2,B7,9
3,B3,36

# Same assay, conditions: TSA expression rate in LUNG cancer
row,Molecule,Expression Rate (ER) % [%]
1,B4,17
2,B1,11

# Same assay, conditions: TSA expression rate in LYMPHOMAS
row,Molecule,Expression Rate (ER) % [%]
1,B1,14

# Same assay, conditions: TSA expression rate in MELANOMA
row,Molecule,Expression Rate (ER) % [%]
1,B4,70
2,B7,12
3,B2,0
4,B3,30

# Same assay, conditions: TSA expression rate in PEDIATRIC
row,Molecule,Expression Rate (ER) % [%]
1,B3,41

# Same assay, conditions: TSA expression rate in PROSTATE cancer
row,Molecule,Expression Rate (ER) % [%]
1,B5,65
2,B6,27
3,B2,0
4,B3,0
